Values belong to the substance of their own block, whether it stands above or below them.
Experiments:
[1] = molecular target: vasopressin type 2 receptor (UniProt P30518)
[2] = molecular target: chimeric V2R harboring the carboxy-terminal tail of the β2-adrenergic receptor
[3] = molecular target: vasopressin type 2 receptor (UniProt P30518); remark: listed apart in the source

AVP-induced maximal efficacy of Rluc-mGs recruitment to early endosomes (EbBRET with rGFP-Rab5), AVP dose-response, 45 min, parental HEK293 cells [1]: 0.18 ΔEbBRET | AVP-induced maximal efficacy of Rluc-mGs recruitment to early endosomes (EbBRET with rGFP-Rab5), AVP dose-response, 45 min, Δβarr1/2 HEK293 cells [1]: 0.074 ΔEbBRET | AVP-induced maximal efficacy of Rluc-mGs recruitment to the plasma membrane (EbBRET with rGFP-CAAX), AVP dose-response, 10 min, parental HEK293 cells [1]: 0.324 ΔEbBRET | AVP-induced maximal efficacy of Rluc-mGs recruitment to the plasma membrane (EbBRET with rGFP-CAAX), AVP dose-response, 10 min, Δβarr1/2 HEK293 cells [1]: 0.376 ΔEbBRET | Potency of AVP (LogEC50) for Rluc-mGs recruitment to early endosomes (EbBRET with rGFP-Rab5), 45 min, parental HEK293 cells [1]: -8.37 LogEC50 | Potency of AVP (LogEC50) for Rluc-mGs recruitment to early endosomes (EbBRET with rGFP-Rab5), 45 min, Δβarr1/2 HEK293 cells [1]: -8.34 LogEC50 | Potency of AVP (LogEC50) for Rluc-mGs recruitment to the plasma membrane (EbBRET with rGFP-CAAX), 10 min, parental HEK293 cells [1]: -7.9 LogEC50 | Potency of AVP (LogEC50) for Rluc-mGs recruitment to the plasma membrane (EbBRET with rGFP-CAAX), 10 min, Δβarr1/2 HEK293 cells [1]: -7.99 LogEC50 | AVP-mediated maximal efficacy of Rluc-mGs recruitment to early endosomes (EbBRET with rGFP-Rab5), AVP dose-response, 45 min, cells expressing V2β2AR [2]: 0.15 ΔEbBRET | AVP-mediated maximal efficacy of Rluc-mGs recruitment to the plasma membrane (EbBRET with rGFP-CAAX), AVP dose-response, 10 min, cells expressing V2β2AR [2]: 0.392 ΔEbBRET | Potency of AVP (logEC50) for Rluc-mGs recruitment to early endosomes (EbBRET with rGFP-Rab5), 45 min, cells expressing V2β2AR [2]: -8.34 logEC50 | Potency of AVP (logEC50) for Rluc-mGs recruitment to the plasma membrane (EbBRET with rGFP-CAAX), 10 min, cells expressing V2β2AR [2]: -8.07 logEC50 | Transduction coefficient log(τ/Ka) of Rluc-mGs recruitment to early endosomes (EbBRET with rGFP-Rab5), cells expressing V2β2AR [2]: 8.31 log(τ/Ka) | Transduction coefficient log(τ/Ka) of Rluc-mGs recruitment to the plasma membrane (EbBRET with rGFP-CAAX), cells expressing V2β2AR [2]: 8.04 log(τ/Ka) | AVP-mediated maximal efficacy of Rluc-mGs recruitment to early endosomes (EbBRET with rGFP-Rab5), AVP dose-response, 45 min, cells expressing V2R [3]: 0.167 ΔEbBRET | AVP-mediated maximal efficacy of Rluc-mGs recruitment to the plasma membrane (EbBRET with rGFP-CAAX), AVP dose-response, 10 min, cells expressing V2R [3]: 0.3 ΔEbBRET | Potency of AVP (logEC50) for Rluc-mGs recruitment to early endosomes (EbBRET with rGFP-Rab5), 45 min, cells expressing V2R [3]: -8.65 logEC50 | Potency of AVP (logEC50) for Rluc-mGs recruitment to the plasma membrane (EbBRET with rGFP-CAAX), 10 min, cells expressing V2R [3]: -8.07 logEC50 | Transduction coefficient log(τ/Ka) of Rluc-mGs recruitment to early endosomes (EbBRET with rGFP-Rab5), cells expressing V2R [3]: 8.63 log(τ/Ka) | Transduction coefficient log(τ/Ka) of Rluc-mGs recruitment to the plasma membrane (EbBRET with rGFP-CAAX), cells expressing V2R [3]: 7.98 log(τ/Ka)
Substance: mini G protein mGs

AVP-induced maximal efficacy of Rluc-mGsq recruitment to early endosomes (EbBRET with rGFP-Rab5), AVP dose-response, 45 min, parental HEK293 cells [1]: 0.05 ΔEbBRET | AVP-induced maximal efficacy of Rluc-mGsq recruitment to early endosomes (EbBRET with rGFP-Rab5), AVP dose-response, 45 min, Δβarr1/2 HEK293 cells [1]: 0.024 ΔEbBRET | AVP-induced maximal efficacy of Rluc-mGsq recruitment to the plasma membrane (EbBRET with rGFP-CAAX), AVP dose-response, 10 min, parental HEK293 cells [1]: 0.168 ΔEbBRET | AVP-induced maximal efficacy of Rluc-mGsq recruitment to the plasma membrane (EbBRET with rGFP-CAAX), AVP dose-response, 10 min, Δβarr1/2 HEK293 cells [1]: 0.18 ΔEbBRET | Potency of AVP (LogEC50) for Rluc-mGsq recruitment to early endosomes (EbBRET with rGFP-Rab5), 45 min, parental HEK293 cells [1]: -8.38 LogEC50 | Potency of AVP (LogEC50) for Rluc-mGsq recruitment to early endosomes (EbBRET with rGFP-Rab5), 45 min, Δβarr1/2 HEK293 cells [1]: -8.32 LogEC50 | Potency of AVP (LogEC50) for Rluc-mGsq recruitment to the plasma membrane (EbBRET with rGFP-CAAX), 10 min, parental HEK293 cells [1]: -7.81 LogEC50 | Potency of AVP (LogEC50) for Rluc-mGsq recruitment to the plasma membrane (EbBRET with rGFP-CAAX), 10 min, Δβarr1/2 HEK293 cells [1]: -7.95 LogEC50 | AVP-mediated maximal efficacy of Rluc-mGsq recruitment to early endosomes (EbBRET with rGFP-Rab5), AVP dose-response, 45 min, cells expressing V2β2AR [2]: 0.061 ΔEbBRET | AVP-mediated maximal efficacy of Rluc-mGsq recruitment to the plasma membrane (EbBRET with rGFP-CAAX), AVP dose-response, 10 min, cells expressing V2β2AR [2]: 0.183 ΔEbBRET | Potency of AVP (logEC50) for Rluc-mGsq recruitment to early endosomes (EbBRET with rGFP-Rab5), 45 min, cells expressing V2β2AR [2]: -7.82 logEC50 | Potency of AVP (logEC50) for Rluc-mGsq recruitment to the plasma membrane (EbBRET with rGFP-CAAX), 10 min, cells expressing V2β2AR [2]: -7.97 logEC50 | Transduction coefficient log(τ/Ka) of Rluc-mGsq recruitment to early endosomes (EbBRET with rGFP-Rab5), cells expressing V2β2AR [2]: 7.91 log(τ/Ka) | Transduction coefficient log(τ/Ka) of Rluc-mGsq recruitment to the plasma membrane (EbBRET with rGFP-CAAX), cells expressing V2β2AR [2]: 7.99 log(τ/Ka) | AVP-mediated maximal efficacy of Rluc-mGsq recruitment to early endosomes (EbBRET with rGFP-Rab5), AVP dose-response, 45 min, cells expressing V2R [3]: 0.05 ΔEbBRET | AVP-mediated maximal efficacy of Rluc-mGsq recruitment to the plasma membrane (EbBRET with rGFP-CAAX), AVP dose-response, 10 min, cells expressing V2R [3]: 0.161 ΔEbBRET | Potency of AVP (logEC50) for Rluc-mGsq recruitment to early endosomes (EbBRET with rGFP-Rab5), 45 min, cells expressing V2R [3]: -8.44 logEC50 | Potency of AVP (logEC50) for Rluc-mGsq recruitment to the plasma membrane (EbBRET with rGFP-CAAX), 10 min, cells expressing V2R [3]: -7.88 logEC50 | Transduction coefficient log(τ/Ka) of Rluc-mGsq recruitment to early endosomes (EbBRET with rGFP-Rab5), cells expressing V2R [3]: 8.31 log(τ/Ka) | Transduction coefficient log(τ/Ka) of Rluc-mGsq recruitment to the plasma membrane (EbBRET with rGFP-CAAX), cells expressing V2R [3]: 7.9 log(τ/Ka)
Substance: mini G protein mGsq

Reference: PMC10586804
